{"source": "the DeepSol protein solubility set", "data": [{"experiment": "soluble on expression in E. coli; label from the status in PepcDB or PDB records", "values": [{"sequence": "MDCVMKGLNKITCCLLAALLMPCAGHAENEQYGANFNNADIRQFVEIVGQHLGKTILIDPSVQGTISVRSNDTFSQQEYYQFFLSILDLYGYSVITLDNGFLKVVRSANVKTSPGMIADSSRPGVGDELVTRIVPLENVPARDLAPLLRQMMDAGSVGNVVHYEPSNVLILTGRASTINKLIEVIKRVDVIGTEKQQIIHLEYASAEDLAEILNQLISESHGKSQMPALLSAKIVADKRTNSLIISGPEKARQRITSLLKSLDVEESEEGNTRVYYLKYAKATNLVEVLTGVSEKLKDEKGNARKPSSSGAMDNVAITADEQTNSLVITADQSVQEKLATVIARLDIRRAQVLVEAIIVEVQDGNGLNLGVQWANKNVGAQQFTNTGLPIFNAAQGVADYKKNGGITSANPAWDMFSAYNGMAAGFFNGDWGVLLTALASNNKNDILATPSIVTLDNKLASFNVGQDVPVLSGSQTTSGDNVFNTVERKTVGTKLKVTPQVNEGDAVLLEIEQEVSSVDSSSNSTLGPTFNTRTIQNAVLVKTGETVVLGGLLDDFSKEQVSKVPLLGDIPLVGQLFRYTSTERAKRNLMVFIRPTIIRDDDVYRSLSKEKYTRYRQEQQQRIDGKSKALVGSEDLPVLDENTFNSHAPAPSSRLEHHHHHH", "soluble on expression in E. coli": "not soluble"}, {"sequence": "AHHHHHHGSILKMLESRGITLERMVETALELYIGEKRDAIKEKVRELMLHYLEDINVQALLMAALMLEEKFNVEGDPVNLVADELIGIDIAEYIGGKMALFNFFYYDTKKPGILRELPPFLDDAIGGFIAGCMTLLFHIPQKNSNGGNL", "soluble on expression in E. coli": "soluble"}, {"sequence": "MTRHGKNSTAASVYTYHERRRDAKASGYGTLHARLGADSIKEFHCCSLTLQPCRNPVISPTGYIFDREAILENILAQKKAYAKKLKEYEKQVAEESAAAKIAEGQAETFTKRTQFSAIESTPSRTGAVATPRPEVGSLKRQGGVMSTEIAAKVKAHGEEGVMSNMKGDKSTSLPSFWIPELNPTAVATKLEKPSSKVLCPVSGKPIKLKELLEVKFTPMPGTETAAHRKFLCPVTRDELTNTTRCAYLKKSKSVVKYDVVEKLIKGDGIDPINGEPMSEDDIIELQRGGTGYSATNETKAKLIRPQLELQ", "soluble on expression in E. coli": "soluble"}, {"sequence": "MTEHNHDSQLEINNEEELLTLFDEEGNEVLYRKVLEFYHPEFKKEYVILAEEGAQSDEDDMIELVPMINEPDESGDGGKLVPIETDEEWDMIEEVVNTEMEELEHHHHHH", "soluble on expression in E. coli": "not soluble"}, {"sequence": "MKLKTNIRHLHGIIRVPGDKSISHRSIIFGSLAEGETKVYDILRGEDVLSTMQVFRDLGVEIEDKDGVITVQGVGMAGLKAPQNALNMGNSGTSIRLISGVLAGADFEVEMFGDDSLSKRPMDRVTLPLKKMGVSISGQTERDLPPLRLKGTKNLRPIHYELPIASAQVKSALMFAALQAKGESVIIEKEYTRNHTEDMLQQFGGHLSVDGKKITVQGPQKLTGQKVVVPGDISSAAFWLVAGLIAPNSRLVLQNVGINETRTGIIDVIRAMGGKLEITEIDPVAKSATLIVESSDLKGTEICGALIPRLIDELPIIALLATQAQGVTVIKDAEELKVKETDRIQVVADALNSMGADITPTADGMIIKGKSALHGARVNTFGDHRIGMMTAIAALLVADGEVELDRAEAINTSYPSFFDDLESLIHG", "soluble on expression in E. coli": "soluble"}, {"sequence": "MGSDKIHHHHHHMINAKNIRFSYPRQRSLFESLNLDLPKGSITGLLGRNGEGKTTLLKLLCGQLLRKDGNLTVLTEDPRHRSVKFLSKVFLLQEEVTCPNVSIRDYFRMITPFYPSYSPEVAQEIIIAFDLNWDMKLGKVSQGQKKKAVIALALSLRTPLLLMDEPTNGLDIPSKSAFRRLMARYITEEQTVIISTHQVRDLEQIIDRIVMMDKNAIVCNRSVAELSEQFAFRQVVPGDKPIYKEGSTMGEVGVYENTTGEETPFSMELFFNGMIAEREVFNRVLNR", "soluble on expression in E. coli": "not soluble"}, {"sequence": "MAHHHHHHMADWQGWYQRMLDVHNRNVSLRCRICDLQRLDGNGVQFVDMQTERRLRILAQHRVGMGVLKLDADKYEDQADNVTFGTTKLSELLADARKAQLGEEYWPSVELKVRKPSGQSKAHYSLIDNERIEKRSRELYEKYRDAKKRSLFVTPMETWLEVKGMQVRKSVDNADEDGYTLDALQDMMDGDDEDKV", "soluble on expression in E. coli": "not soluble"}]}]}
